The labels stand for the following.
B1: Antibody E7 (antibody, human IgG1, kappa, L234A L235A, V domains shown)
VH: QVQLQESGPGLVRPSETLSLTCTVSGGSIRNYYWSWIRQPPGKGLEWIGFIYYNGRTFYNPSLKSRVTISLDTSKNQFSLKMTSVTAADTAVYYCARVRAYSGIGLDGTDVWGQGTTVTVSS
VL: DIVMTQSPLSLPVTPGEPASISCKSSQSLLYSNGYAYLDWYLQRPGQSPQLLIYQGSNRASGVPDRFSGSGSGTDFTLKISRVEAEDVGVFYCMQALQTPLTFGGGTKVEIKR
B2: Antibody E4 (antibody, human IgG1, kappa, L234A L235A, V domains shown)
VH: B1 VH with T73M
VL: B1 VL with Q55L, F91Y
B3: Antibody E18 (antibody, human IgG1, kappa, L234A L235A, V domains shown)
VH: B1 VH with N54T, T73M
VL: B1 VL with Q55L, F91Y
B4: Antibody E12 (antibody, human IgG1, kappa, L234A L235A, V domains shown)
VH: B1 VH with T73M
VL: B1 VL with G34A, A36N, Q55L, F91Y
B5: Antibody E8 (antibody, human IgG1, kappa, L234A L235A, V domains shown)
VH: B1 VH with I48M, Y53D, T73M, K75M
VL: B1 VL
B6: Antibody E21 (antibody, human IgG1, kappa, L234A L235A, V domains shown)
VH: B1 VH with N54T, T73M
VL: B1 VL with G34A, A36N, Q55L, F91Y
B7: Antibody E9 (antibody, human IgG1, kappa, L234A L235A, V domains shown)
VH: B1 VH with T73M, K75I
VL: B1 VL with G34A, A36N, Q55L, F91Y
B8: Antibody E11 (antibody, human IgG1, kappa, L234A L235A, V domains shown)
VH: B1 VH with I48M, Y53D, T73M, K75M
VL: B1 VL with Q55L, F91Y
B9: Antibody E20 (antibody, human IgG1, kappa, L234A L235A, V domains shown)
VH: B1 VH with N54T, T73M, K75I
VL: B1 VL with G34A, A36N, Q55L, F91Y
B10: Antibody E17 (antibody, human IgG1, kappa, L234A L235A, V domains shown)
VH: B1 VH with I48M, Y53D, T73M, K75M
VL: B1 VL with G34A, A36N, Q55L, F91Y
B11: Antibody E14 (antibody, human IgG1, kappa, L234A L235A, V domains shown)
VH: B1 VH with T73K
VL: B1 VL with G34A, A36N, Q55L, F91Y
B12: Antibody E10 (antibody, human IgG1, kappa, L234A L235A, V domains shown)
VH: B1 VH
VL: B1 VL with Q55L, F91Y
B13: Antibody E15 (antibody, human IgG1, kappa, L234A L235A, V domains shown)
VH: B1 VH with N54T, T73M, K75I
VL: B1 VL with Q55L, F91Y
B14: Antibody E13 (antibody, human IgG1, kappa, L234A L235A, V domains shown)
VH: B1 VH with N54T, T73M, K75I
VL: B1 VL
B15: Antibody E19 (antibody, human IgG1, kappa, L234A L235A, V domains shown)
VH: B1 VH with N54T, T73M
VL: B1 VL

Substitutions are numbered along the chain they refer to.

The record followed here is US20230012273A1 (Boehringer Ingelheim, published 2023).

As a reminder, the Kd is the free concentration of one partner at which half of the binding sites on the other are occupied at equilibrium, for simple one-to-one binding.

One experiment has as its target T1, cynomolgus SIRPγ (XP_005568591) extracellular domain + His-tag (cynomolgus monkey, UniProt Q9P1W8 29-359 (human entry)).
T1 construct: SPR analyte; also called Cyno SIRPγ XP_005568591; cynoSIRPγ; not shown: His-tag
T1 chain: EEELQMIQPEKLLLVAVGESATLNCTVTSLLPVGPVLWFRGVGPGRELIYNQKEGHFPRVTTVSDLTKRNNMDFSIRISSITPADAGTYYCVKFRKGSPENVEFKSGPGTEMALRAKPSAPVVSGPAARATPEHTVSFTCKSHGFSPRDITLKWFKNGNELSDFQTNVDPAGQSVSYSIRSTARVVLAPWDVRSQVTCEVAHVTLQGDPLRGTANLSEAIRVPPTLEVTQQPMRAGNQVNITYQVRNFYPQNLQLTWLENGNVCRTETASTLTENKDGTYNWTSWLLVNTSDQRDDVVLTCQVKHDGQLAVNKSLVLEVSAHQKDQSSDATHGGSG
As to the kind of experiment: SPR. Here is the method:
(§1) The binding affinity of anti-SIRPα antibodies to the various SIRPα analytes is determined by surface plasmon resonance (SPR) using a ProteOn XPR36 (Bio-Rad). The running buffer for this experiment and all dilutions (except where stated) are done in 1×HBS-EP+. […] The sensorchip is deactivated with 1M ethanolamine HCl for 420 sec at a flowrate of 10 μl/min.
(§2) The analyte is injected over the captured antibody for 300 sec at a flowrate of 30 μl/min. The dissociation is done for 600 sec. Two-fold serial dilutions of each SIRP protein (Extracellular Domain+His-Tag) are injected as analyte with the highest concentrations indicated in table 36 below.
Background: Surface plasmon resonance follows binding to a sensor surface in real time, without labels.
As for B1, the binding result is on record as “no binding (tested: 1000 nM)”.
Same read-out and setting: the value for B2 was “no binding (tested: 1000 nM)”; that for B3 was “no binding (tested: 1000 nM)”.
B4: the binding result is reported as “no binding (tested: 1000 nM)”.
B5: the binding result is reported as “no binding (tested: 1000 nM)”.
Regarding B6, the binding result was “no binding (tested: 1000 nM)”.
On to B7, for which the binding result is on record as “no binding (tested: 1000 nM)”.
B8: the binding result is recorded as “no binding (tested: 1000 nM)”.
Regarding B9, the binding result was “no binding (tested: 1000 nM)”.
For B10, the binding result is given as “no binding (tested: 1000 nM)”.
B11: the binding result is “no binding (tested: 1000 nM)”.
Turning to B12, the binding result is on record as “no binding (tested: 1000 nM)”.
As for B13, the binding result is “no binding (tested: 1000 nM)”.
B14: the binding result is “no binding (tested: 1000 nM)”.
As for B15, the binding result is “no binding (tested: 1000 nM)”.

The next experiment deals with T2, cynomolgus SIRPβ1 (XP_005568598) extracellular domain + His-tag (cynomolgus monkey).
T2 construct: SPR analyte; also called Cyno SIRPβ1 XP_005568598; cynoSIRPβ1; not shown: His-tag
T2 chain: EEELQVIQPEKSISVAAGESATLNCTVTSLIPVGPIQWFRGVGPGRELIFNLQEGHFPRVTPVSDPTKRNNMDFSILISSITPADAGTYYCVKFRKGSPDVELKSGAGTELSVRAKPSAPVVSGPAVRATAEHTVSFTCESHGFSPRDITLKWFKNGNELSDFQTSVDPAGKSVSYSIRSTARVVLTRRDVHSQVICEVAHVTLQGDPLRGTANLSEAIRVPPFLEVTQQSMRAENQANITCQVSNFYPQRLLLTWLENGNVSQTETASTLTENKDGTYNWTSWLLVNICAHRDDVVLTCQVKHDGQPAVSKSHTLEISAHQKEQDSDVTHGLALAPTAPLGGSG
Briefly: SPR. Here is the method:
as §1, §2
For the molecule B1, the binding result was “no binding (tested: 1000 nM)”.
For B2, the binding result is on record as “no binding (tested: 1000 nM)”.
Still for that read-out and setting: the value for B3 was “no binding (tested: 1000 nM)”; that for B4 was “no binding (tested: 1000 nM)”; that for B5 was “no binding (tested: 1000 nM)”.
Still for that read-out and setting: the value for B6 was “no binding (tested: 1000 nM)”; that for B7 was “no binding (tested: 1000 nM)”.
The same measure, in the same setting: the value for B8 was “no binding (tested: 1000 nM)”; that for B9 was “no binding (tested: 1000 nM)”; that for B10 was “no binding (tested: 1000 nM)”.
As to B11, the binding result is reported as “no binding (tested: 1000 nM)”.
As for B12, the binding result is listed as “no binding (tested: 1000 nM)”.
The same measure, in the same setting: as for B13, the entry is “no binding (tested: 1000 nM)”; as for B14, “no binding (tested: 1000 nM)”; as for B15, “no binding (tested: 1000 nM)”.

The target in the next experiment is T3, cynomolgus SIRPα (EGM_02252) extracellular domain + His-tag (cynomolgus monkey).
T3 construct: SPR analyte; also called CySIRPα EGM_02252; cynoSIRPα; not shown: His-tag
T3 chain: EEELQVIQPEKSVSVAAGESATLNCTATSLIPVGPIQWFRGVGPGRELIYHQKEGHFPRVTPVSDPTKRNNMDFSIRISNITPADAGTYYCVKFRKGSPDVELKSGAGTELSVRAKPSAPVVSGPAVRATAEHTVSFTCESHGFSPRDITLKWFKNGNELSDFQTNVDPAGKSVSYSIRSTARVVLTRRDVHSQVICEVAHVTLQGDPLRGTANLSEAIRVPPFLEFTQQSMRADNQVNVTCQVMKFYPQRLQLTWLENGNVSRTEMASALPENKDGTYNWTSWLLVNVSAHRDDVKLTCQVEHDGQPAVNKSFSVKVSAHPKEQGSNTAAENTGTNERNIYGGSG
As to the kind of experiment: SPR. As to the method:
as §1, §2
For the molecule B1, the binding result is “no binding (tested: 1000 nM)”.
Consider B2, for which the binding result is “no binding (tested: 1000 nM)”.
Still for that read-out and setting: as for B3, the entry is “no binding (tested: 1000 nM)”; as for B4, “no binding (tested: 1000 nM)”.
With B5, the binding result is “no binding (tested: 1000 nM)”.
As to B6, the binding result is reported as “no binding (tested: 1000 nM)”.
With B7, the binding result was “no binding (tested: 1000 nM)”.
Turning to B8, the binding result is “no binding (tested: 1000 nM)”.
Regarding B9, the binding result is “no binding (tested: 1000 nM)”.
Turning to B10, the binding result is recorded as “no binding (tested: 1000 nM)”.
In the case of B11, the binding result was “no binding (tested: 1000 nM)”.
Take B12: the binding result is “no binding (tested: 1000 nM)”.
For the molecule B13, the binding result is “no binding (tested: 1000 nM)”.
Same read-out and setting: as for B14, the entry is “no binding (tested: 1000 nM)”.
B15: the binding result is recorded as “no binding (tested: 1000 nM)”.

The target in the next experiment is T4, cynomolgus SIRPβ1v3 (XP_005568593) extracellular domain + His-tag (cynomolgus monkey).
T4 construct: SPR analyte; also called Cyno SIRPβ1v3 XP_005568593; cynoSIRPβ1v3; not shown: His-tag
T4 chain: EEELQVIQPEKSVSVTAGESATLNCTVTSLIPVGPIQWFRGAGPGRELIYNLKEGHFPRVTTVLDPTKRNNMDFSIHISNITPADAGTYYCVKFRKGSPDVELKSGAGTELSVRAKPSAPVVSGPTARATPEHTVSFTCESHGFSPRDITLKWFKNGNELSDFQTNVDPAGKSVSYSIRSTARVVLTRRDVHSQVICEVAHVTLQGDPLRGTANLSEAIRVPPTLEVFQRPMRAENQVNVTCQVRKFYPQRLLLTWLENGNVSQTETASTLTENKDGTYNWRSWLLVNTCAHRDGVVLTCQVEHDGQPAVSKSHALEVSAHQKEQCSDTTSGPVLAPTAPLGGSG
Briefly: SPR, antibody captured, ECD-His analyte. Here is the method:
as §1, §2
Turning to B1, the Kd came to 13.1 nM.
Same read-out and setting: the value for B2 was 13.1 nM.
Regarding B3, the dissociation constant Kd turned out to be 27.8 nM.
For the molecule B4, the Kd is 27.9 nM.
As for B5, the equilibrium dissociation constant (Kd) amounted to 10.8 nM.
Consider B6, for which the Kd came to 56.5 nM.
The same measure, in the same setting: as for B7, the figure is 25.1 nM; as for B8, 13.2 nM.
With B9, the Kd turned out to be 57.4 nM.
Consider B10, for which the equilibrium dissociation constant (Kd) amounted to 27 nM.
On to B11, for which the Kd came to 51.9 nM.
Consider B12, for which the dissociation constant Kd was 15.7 nM.
Regarding B13, the equilibrium dissociation constant (Kd) was 25.8 nM.
The same measure, in the same setting: the value for B14 was 20.5 nM.
In the case of B15, the Kd was found to be 25 nM.
